We go through 13 molecules from patent publication US20240376190A1 (Chugai, published 2024).

Positions count from the first letter of the chain named.

For experiment [1], the target named is T1, FLAG-tagged human latent TGF-beta 1 (human, UniProt P01137 34-390).
T1 construct: Co-expressed with human furin, purified on anti-FLAG resin and by gel filtration; also called human latent TGF-beta 1 (SLC); hSLC
Kind of experiment: SPR (BIACORE), antibody captured on anti-human Fc, antigen as analyte, pH 7.4. (In general: SPR reads the build-up and loss of mass on a sensor chip optically.)

Experiment [2] deals with T2, FLAG-tagged mouse latent TGF-beta 1 (mouse, UniProt P04202 34-390).
T2 construct: Co-expressed with human furin; also called mouse latent TGF-beta 1 (SLC); mSLC
Described as above.

In experiment [3] the target is T1, FLAG-tagged human latent TGF-beta 1. As to the kind of experiment: SPR (BIACORE 8K), antibody captured on anti-human Fc, antigen as analyte, pH 7.4.
Experimental: (§1) A mouse anti-human Fc (GE Healthcare) was immobilized onto all flow cells of a CM5 sensor chip using amine coupling kit (GE Healthcare). Antibodies were captured onto the anti-human Fc sensor surfaces to around 20RU capture level, then recombinant latent TGF-beta 1 of human, cyno, and mouse was injected over the flow cell. All antibodies and analytes were prepared in ACES pH 7.4 containing 20 mM ACES, 150 mM NaCl, 0.05% Tween 20, 0.005% NaN₃. Sensor surface was regenerated each cycle with 3M MgCl₂.
The target in experiment [4] is T2, FLAG-tagged mouse latent TGF-beta 1. The experiment is described as above.
Experimental: as §1
The target in experiment [5] is T1, FLAG-tagged human latent TGF-beta 1. As to the kind of experiment: SPR (BIACORE 8K), antibody captured on anti-human Fc, antigen as analyte, pH 5.8.
For experiment [6], the target named is T2, FLAG-tagged mouse latent TGF-beta 1. The experiment is described as above.
Experiment [7] has as its target T3, Cyno latent TGF-beta 1 (Cys at the 30th position substituted with Ser (C33S mutation)).
T3 construct: The first reading lists it only inside the group m5; also called FLAG-tagged cynomolgus monkey latent TGF-beta 1; monkey latent TGF-beta 1 (SLC)
As to the kind of experiment: SPR (BIACORE 8K), ratio calculated from FIGS. 5 and 6.

For experiment [8], the target named is T1, FLAG-tagged human latent TGF-beta 1. The experiment is described as above.
Experiment [9] deals with T2, FLAG-tagged mouse latent TGF-beta 1. Described as above.
Experiment [10] has as its target T3, Cyno latent TGF-beta 1. As to the kind of experiment: SPR (BIACORE 8K), antibody captured on anti-human Fc, antigen as analyte, pH 7.4.
Experimental: as §1
The target of experiment [11] is T3, Cyno latent TGF-beta 1. As to the kind of experiment: SPR (BIACORE 8K), antibody captured on anti-human Fc, antigen as analyte, pH 5.8.
Experiment [12] deals with T4, mouse cell surface latent TGF-beta 1 expressed on Ba/F3 cells (mouse, UniProt P04202 30-390).
T4 construct: whole, on cells; also called mouse latent TGF-beta 1
Kind of experiment: flow cytometry (FACS) on BaF3 cells, PE anti-human IgG secondary. Background: A flow cytometer gives signals particle by particle.
Experimental: (§2) The anti-latent TGF-beta 1 antibodies (10 microgram/mL each) were incubated with each cell line for 30 minutes at 4 degree C. and washed with FACS buffer (2% PBS, 2 mM EDTA in PBS). […] Data acquisition was performed on an FACS Verse (Becton Dickinson), followed by analysis and calculation of Mean Fluorescence Intensity (MFI), using FlowJo (trademark) software (Tree Star) and GraphPad Prism software (GraphPad).

Experiment [13] deals with T5, human cell surface latent TGF-beta 1 expressed on FreeStyle 293-F cells (human, UniProt P01137 30-390).
T5 construct: whole, on cells; also called human latent TGF-beta 1
Kind of experiment: flow cytometry (FACS) on FreeStyle 293-F cells, PE anti-human IgG secondary.
Experimental: as §2

T3 sequence (latent TGF-beta 1 (LAP and mature TGF-beta 1), as listed by the source): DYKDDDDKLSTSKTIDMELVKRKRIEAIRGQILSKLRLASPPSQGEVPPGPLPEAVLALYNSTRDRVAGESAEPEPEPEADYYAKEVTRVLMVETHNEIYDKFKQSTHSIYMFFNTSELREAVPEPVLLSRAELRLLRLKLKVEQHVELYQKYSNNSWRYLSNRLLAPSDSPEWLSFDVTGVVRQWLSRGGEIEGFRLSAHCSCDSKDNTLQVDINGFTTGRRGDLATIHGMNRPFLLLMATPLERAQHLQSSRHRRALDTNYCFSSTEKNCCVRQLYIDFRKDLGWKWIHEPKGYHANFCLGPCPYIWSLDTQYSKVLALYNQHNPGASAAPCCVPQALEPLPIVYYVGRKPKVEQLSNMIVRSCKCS

B1: hT0947AE20-SG181 (antibody, human IgG1, kappa)
heavy: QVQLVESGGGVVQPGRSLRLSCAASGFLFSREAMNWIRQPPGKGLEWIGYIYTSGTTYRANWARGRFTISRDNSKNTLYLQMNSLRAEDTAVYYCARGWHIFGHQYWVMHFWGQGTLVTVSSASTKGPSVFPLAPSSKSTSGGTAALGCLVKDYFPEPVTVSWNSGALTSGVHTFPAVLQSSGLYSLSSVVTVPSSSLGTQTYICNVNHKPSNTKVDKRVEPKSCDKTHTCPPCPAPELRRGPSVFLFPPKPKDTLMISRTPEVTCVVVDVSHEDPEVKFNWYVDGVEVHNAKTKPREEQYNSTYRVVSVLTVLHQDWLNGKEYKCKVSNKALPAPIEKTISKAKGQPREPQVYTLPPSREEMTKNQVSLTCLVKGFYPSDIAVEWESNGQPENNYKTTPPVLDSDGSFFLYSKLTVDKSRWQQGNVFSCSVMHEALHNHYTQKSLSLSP
light: DIQMTQSPSSLSASVGDRVTITCQASQSISTYEAWYQQKPGQPPKLLIYAASTLESGVPSRFSGSGSGTDFTLTISSLQPEDFATYYCQSYSDGDSVIFGQGTKVEIKRTVAAPSVFIFPPSDEQLKSGTASVVCLLNNFYPREAKVQWKVDNALQSGNSQESVTEQDSKDSTYSLSSTLTLSKADYEKHKVYACEVTHQGLSSPVTKSFNRGEC
notes: Human IgG1
Regarding B1, in experiment [1], the Kd – broadly, a measure of binding affinity in units of concentration – was found to be 2.95 nM; the koff (as a rule, the first-order rate constant of dissociation) amounted to 0.00111 s⁻¹; the kon (commonly a measure of how fast the partners come together) came out at 377000 M⁻¹ s⁻¹. Besides, in experiment [2], the Kd stood at 4.39 nM, the off-rate (koff) turned out to be 0.00294 s⁻¹ and the kon came to 670000 M⁻¹ s⁻¹.

B2: hT0947AE07-SG181 (antibody, human IgG1, kappa)
heavy: not shown
light: B1 light with E33L, I98G
notes: Human IgG1; Heavy chain = VH + CH, light chain = VL + CL; also called non-pH dependent anti-human latent TGF-beta 1 antibody
In the case of B2, the Kd in experiment [1] stood at 1.02 nM; in experiment [2], 1.04 nM.

B3: hT0947AE22-SG181 (antibody, human IgG1, kappa, V domains shown)
VH: QVQLVESGGGVVQPGRSLRLSCAASGFHFSREAMNWIRQPPGKGLEWIGYIYTSGTTYRANWARGRFTISRDNSKNTLYLQMNSLRAEDTAVYYCARGWHIFGHHYWVMHFWGQGTLVTVSS
VL: DIQMTQSPSSLSASVGDRVTITCQASQSISTYLAWYQQKPGQPPKLLIYAASTLESGVPSRFSGSGSGTDFTLTISSLQPEDFATYYCQSYSDGDSVIFGQGTKVEIKR
notes: Human IgG1; Heavy chain = VH + CH, light chain = VL + CL
On to B3, for which, in experiment [1], the Kd worked out at 3.6 nM, the off-rate (koff) was determined as 0.00124 s⁻¹ and the kon stood at 344000 M⁻¹ s⁻¹. In experiment [2], this molecule showed a Kd of 5.76 nM, a koff of 0.00376 s⁻¹ and a kon of 653000 M⁻¹ s⁻¹.

B4: T0947H0053H0156-SG181/T0947L001L0049-SK1 (antibody, human IgG1, kappa, V domains shown)
VH: B3 VH with H28T, R31S, W99T, F102Y, G103D, H105Y, M109H, F111L
VL: B3 VL with I98G
notes: Human IgG1; also called the pH dependent antibody; parent pH-dependent anti human latent TGF-beta 1 antibody
Turning to B4, the Kd in experiment [2] was 16.6 nM.

B5: hT0947AE24-SG181 (antibody, human IgG1, kappa, V domains shown)
VH: B3 VH with R31S
VL: B3 VL with S56W, I98G
notes: as for B3
For B5, in experiment [1], the Kd came to 2.55 nM, the koff was determined as 0.001 s⁻¹ and the kon was found to be 393000 M⁻¹ s⁻¹. In experiment [2], this molecule had an equilibrium dissociation constant (Kd) of 7.03 nM, a koff of 0.00441 s⁻¹ and a kon of 627000 M⁻¹ s⁻¹.

B6: hT0947AE34-SG191 (antibody, human IgG1, V domains shown)
VH: B3 VH with R31S, G103D, F111A
VL: B3 VL with S56Y
notes: Human IgG1, SG191; also called hT0497AE34-SG191
As to B6, the Kd in experiment [3] is 2.29 nM; in experiment [4] it was 3.67 nM; in [5] it was 309 nM; in [6], 346 nM.

B7: hT0947AE23-SG181 (antibody, human IgG1, kappa, V domains shown)
VH: B3 VH with W99T, I101L, F111S
VL: B3 VL with S56Y, I98V
notes: as for B3
As for B7, in [1], the affinity, expressed as Kd, was 3.25 nM; the koff came to 0.00108 s⁻¹; the kon was 333000 M⁻¹ s⁻¹. In addition, in experiment [2], binding was put at a Kd of 4.19 nM, the koff is 0.00187 s⁻¹ and the kon is 445000 M⁻¹ s⁻¹.

B8: hT0947AE26-SG181 (antibody, human IgG1, kappa, V domains shown)
VH: B3 VH with R31N, A60S, H105Q
VL: B3 VL with L33E, I98K
notes: as for B3
For the molecule B8, in experiment [1], the Kd is 3.33 nM, the koff was 0.0012 s⁻¹ and the on-rate constant (kon) is 361000 M⁻¹ s⁻¹. Also, in [2], the affinity, expressed as Kd, was 5.34 nM; the koff came to 0.00864 s⁻¹; the kon was found to be 1.62e+06 M⁻¹ s⁻¹.

B9: hT0947AE25-SG181 (antibody, human IgG1, kappa, V domains shown)
VH: B3 VH with R31N, A60S, H105Q
VL: B3 VL with L33E, I98G
notes: as for B3
In experiment [1], B9 registered a Kd of 3.88 nM, a koff of 0.00152 s⁻¹ and a kon of 391000 M⁻¹ s⁻¹. Besides, in [2], the Kd is 4.48 nM, the koff is 0.0353 s⁻¹ and the kon came out at 7.89e+06 M⁻¹ s⁻¹.

B10: hT0947AE20-SG191 (antibody, human IgG1)
heavy: QVQLVESGGGVVQPGRSLRLSCAASGFLFSREAMNWIRQPPGKGLEWIGYIYTSGTTYRANWARGRFTISRDNSKNTLYLQMNSLRAEDTAVYYCARGWHIFGHQYWVMHFWGQGTLVTVSSASTKGPSVFPLAPSSKSTSGGTAALGCLVKDYFPEPVTVSWNSGALTSGVHTFPAVLQSSGLYSLSSVVTVPSSSLGTQTYICNVNHKPSNTKVDKRVEPKSCDKTHTCPPCPAPELRRGPSVFLFPPKPKDTLMISRTPEVTCVVVDVSHEDPEVKFNWYVDGVEVHNAKTKPREEQYNSTYRVVSVLTVLHQDWLNGKEYKCKVSNKALPAPIEKTISKAKGQPREPQVYTLPPSREEMTKNQVSLTCLVKGFYPSDIAVEWESNGQPENNYKTTPPVLDSDGSFFLYSKLTVDKSRWQQGNVFSCSVLHEALHAHYTRKELSLSP
light: B1 light
notes: Human IgG1, SG191; also called hT0497AE20-SG191
Turning to B10, the “KD ratio pH5.8/pH7.4” value with Cyno latent TGF-beta 1 [7] was 113; in experiment [8], 103; in [9], 131. The “koff ratio pH5.8/pH7.4” value was 55.3 with Cyno latent TGF-beta 1 [7], 51.7 in experiment [8] and 44.2 in [9]. Also, the Kd with Cyno latent TGF-beta 1 [10] was determined as 3.78 nM; in experiment [3], 3.84 nM; in experiment [4], 5.12 nM; with Cyno latent TGF-beta 1 [11] it was 427 nM; in experiment [5], 395 nM; in experiment [6], 669 nM. For the same molecule, the koff in the experiment with Cyno latent TGF-beta 1 [10] was 0.001 s⁻¹; in experiment [3], 0.00104 s⁻¹; in experiment [4], 0.00242 s⁻¹; in the experiment with Cyno latent TGF-beta 1 [11], 0.0553 s⁻¹; in [5] it was 0.0538 s⁻¹; in experiment [6], 0.107 s⁻¹. In addition, the kon with Cyno latent TGF-beta 1 [10] was 266000 M⁻¹ s⁻¹; in [3], 271000 M⁻¹ s⁻¹; in experiment [4] it was 472000 M⁻¹ s⁻¹; with Cyno latent TGF-beta 1 [11], 129000 M⁻¹ s⁻¹; in experiment [5] it was 136000 M⁻¹ s⁻¹; in experiment [6], 160000 M⁻¹ s⁻¹.

B11: hT0947AE37-SG191 (antibody, human IgG1, V domains shown)
VH: B3 VH with R31S, T53V, N61D, F111A
VL: B3 VL with Q27E
notes: Human IgG1, SG191; also called hT0497AE37-SG191
Consider B11, for which the Kd in [3] came to 1.32 nM; in experiment [4] it was 3.61 nM; in [5], 222 nM; in experiment [6], 1570 nM.

B12: hT0947AE27-SG191 (antibody, human IgG1, V domains shown)
VH: B3 VH with R31N, S54T
VL: B3 VL with S28R, L33V
notes: Human IgG1, SG191; also called hT0497AE27-SG191
On to B12, for which the equilibrium dissociation constant (Kd) in experiment [3] stood at 3.93 nM; in experiment [4] it was 5.43 nM; in experiment [5] it was 482 nM; in [6], 803 nM.

B13: Anti-KLH antibody IC17dK-SG181 (antibody, human IgG1, kappa, V domains shown)
VH: QVQLQQSGPQLVRPGASVKISCKASGYSFTSYWMHWVNQRPGQGLEWIGMIDPSYSETRLNQKFKDKATLTVDKSSSTAYMQLSSPTSEDSAVYYCALYGNYFDYWGQGTTLTVSS
VL: DIQMTQSSSSFSVSLGDRVTITCKASEDIYNRLAWYQQKPGNAPRLLISGATSLETGVPSRFSGSGSGKDYTLSITSLQTEDVATYYCQQYWSTPYTFGGGTKLEVKR
notes: Anti-KLH antibody with a human IgG1 Fc region, used as negative control; also called negative control antibody
For the molecule B13, the binding result in experiment [12] and in experiment [13] was “no binding (tested: 10 microgram/mL)” in each case.
